Data as given in patent US20250026820A1 (WUHAN YZY BIOPHARMA, published 2025).

T1: TGFβ3 protein (GenScript Z03430) (human, UniProt P10600 301-412)
T1 construct: also called human TGF-β3
T1 sequence (looked up): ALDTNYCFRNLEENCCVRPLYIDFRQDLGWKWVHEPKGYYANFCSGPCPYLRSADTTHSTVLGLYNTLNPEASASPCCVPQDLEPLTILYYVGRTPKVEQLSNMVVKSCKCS

T2: TGFβ2 protein (GenScript Z03429) (human, UniProt P61812 303-414)
T2 construct: also called human TGF-β2
T2 sequence (looked up): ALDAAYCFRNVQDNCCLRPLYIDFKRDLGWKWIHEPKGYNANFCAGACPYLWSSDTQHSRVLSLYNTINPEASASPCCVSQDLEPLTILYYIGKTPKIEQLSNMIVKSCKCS


How the values were obtained:
[1] = molecular target: BSA (UniProt P02769); assay: ELISA; plate coated with BSA (control); E. coli supernatant; HRP anti-VHH
Chain of BSA (P02769 25-607 limits assumed): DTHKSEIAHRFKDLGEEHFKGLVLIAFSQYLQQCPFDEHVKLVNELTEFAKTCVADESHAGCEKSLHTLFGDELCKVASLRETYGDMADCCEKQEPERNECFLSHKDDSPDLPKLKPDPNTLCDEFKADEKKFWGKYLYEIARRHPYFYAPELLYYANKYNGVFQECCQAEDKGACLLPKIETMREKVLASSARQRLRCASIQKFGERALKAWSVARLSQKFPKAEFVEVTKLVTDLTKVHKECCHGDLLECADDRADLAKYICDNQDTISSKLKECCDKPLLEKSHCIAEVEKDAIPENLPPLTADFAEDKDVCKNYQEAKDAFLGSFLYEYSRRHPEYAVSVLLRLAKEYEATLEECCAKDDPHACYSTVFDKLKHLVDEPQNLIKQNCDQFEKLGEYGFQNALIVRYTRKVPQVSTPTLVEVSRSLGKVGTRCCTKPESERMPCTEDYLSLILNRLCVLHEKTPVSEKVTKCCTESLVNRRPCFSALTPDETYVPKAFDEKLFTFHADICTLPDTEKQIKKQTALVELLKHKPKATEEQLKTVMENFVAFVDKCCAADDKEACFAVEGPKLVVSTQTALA

[2] = molecular target: T3, TGFβ1 protein (GenScript Z03411) (human, UniProt P01137 279-390); assay: ELISA; plate coated with TGFβ1; E. coli supernatant; HRP anti-VHH
T3 construct: also called human TGF-β1; TGFβ1 antigen
T3 sequence (P01137 279-390 limits assumed, one chain of several): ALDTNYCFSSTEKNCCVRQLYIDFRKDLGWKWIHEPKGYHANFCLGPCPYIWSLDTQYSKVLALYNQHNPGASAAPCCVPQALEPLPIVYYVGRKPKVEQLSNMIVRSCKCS
Method: A microplate was coated with 2 μL/well of the TGFβ1 protein solution and BSA, respectively, at 4° C. overnight; the supernatant was discarded, 300 μL of a blocking solution (PBS containing 3% BSA) was added to each well, and the plate was blocked at 37° C. for 2 h; the supernatant collected by centrifugation was added to the well of the microplate at 200 μL per well, the plate was left to stand and incubated at room temperature for 2 h, and the supernatant was discarded; the plate was washed for 3 times with 200 μL/well PBST (PBS containing 0.1% Tween 20); a diluted HRP-labeled anti-VHH secondary antibody (Genscript, A01861) was added, the secondary antibody was used after a 1:10000 dilution, the diluent was PBS containing 1% BSA, the volume was 100 μL/well, and the plate was incubated at room temperature for 1 h; the plate was washed for 5 times with 200 μL/well PBST; a TMB chromogenic solution (BD, 55214) was added at 100 μL/well for color development at 37° C. for 8 min. 2 M HCl stop solution was added at 100 μL/well. After the addition of the stop solution, the 450 nm values were read using a microplate reader within 30 min.

[3] = molecular target: T1, TGFβ3 protein (GenScript Z03430); assay: ELISA; plate coated with human TGF-β3; antibody titrated; HRP anti-human Fc
Method: (§1) A microplate was coated with 2 μL/well of the human TGF-β1/2/3 protein solution, respectively, at 4° C. overnight; the supernatant was discarded, 300 μL of a blocking solution (PBS containing 3% BSA) was added to each well, and the plate was blocked at 37° C. for 2 h; the antibodies were gradiently diluted, and the diluent was PBS containing 1% BSA. For example, the initial concentration of the antibody dilution was 500 nM, and diluted 10-fold to obtain 8 concentration gradients. The diluted antibody was added to the well of the microplate at 200 μL per well, the plate was left to stand and incubated at room temperature for 2 h, and the supernatant was discarded; the plate was washed for 3 times with 200 μL/well PBST (PBS containing 0.1% Tween 20); a diluted HRP-labeled anti-human Fc secondary antibody (SIGMA, A8667) was added, the secondary antibody was used after a 1:20000 dilution, the diluent was PBS containing 1% BSA, the volume was 100 μL/well, and the plate was incubated at room temperature for 1 h; the plate was washed for 5 times with 200 μL/well PBST; a TMB chromogenic solution (BD, 55214) was added at 100 μL/well for color development at 37° C. for 8 min. 2 M HCl stop solution was added at 100 μL/well. After the addition of the stop solution, the 450 nm values were read using a microplate reader within 30 min. Data were analyzed using GraphPad Prism 6.0 software and avidity fitting was performed to give EC50 values.

[4] = molecular target: T2, TGFβ2 protein (GenScript Z03429); assay: ELISA; plate coated with human TGF-β2; antibody titrated; HRP anti-human Fc
Method: as §1

[5] = molecular target: T3, TGFβ1 protein (GenScript Z03411); assay: ELISA; plate coated with human TGF-β1; antibody titrated; HRP anti-human Fc
Method: as §1

Row | OD value of binding to BSA [1] [OD 450 nm] | OD value of binding to TGFβ1 [2] [OD 450 nm] | EC50 [3] [nM] | EC50 [4] [nM] | EC50 [5] [nM] | Binder
1 | 0.052 | 2.08 | – | – | – | B1C5 heavy chain single-domain antibody (VHH, Tested as crude supernatant of IPTG-induced E. coli TG1 carrying the pComb3XSS clone) VHH: EVQLVESGGGEVRPGGSLRLSCVVSGFTKDYGAIGWFRQAPGQEREGLGCIARKDGDTWSADSVKGRFTISRDNVRNTVYLQMNALKPEDRGVYYCAGDPSALYGCSDRSSEYQYWGQGTQVTVSS
2 | 0.053 | – | – | – | – | B2F6 heavy chain single-domain antibody (VHH) VHH: EVQLVESGGGLVQPGGSLRLSCAASGFTFSYYVASWYRQAPGKERELVATTFPPDGSPHYADSVKGRFAISRDNAKNTVFLQMDSLKSEDTAVYYCNARRVEGHGIYWGQGTQVTVSS
3 | – | – | 1.03 | 0.774 | – | B2F6 anti-TGFβ single domain heavy-chain antibody (variable region, linker peptide, human IgG1 heavy chain constant region) (Fc fusion, not shown: linker peptide (GGGGS)n, n=1, 2 or 3; human IgG1 heavy chain constant region, GenBank No. AK303185.1) heavy: EVQLVESGGGLVQPGGSLRLSCAASGFTFSYYVASWYRQAPGKERELVATTFPPDGSPHYADSVKGRFAISRDNAKNTVFLQMDSLKSEDTAVYYCNARRVEGHGIYWGQGTQVTVSS
4 | 0.064 | 1.85 | – | – | – | B2G8 heavy chain single-domain antibody (VHH, Tested as crude supernatant of IPTG-induced E. coli TG1 carrying the pComb3XSS clone) VHH: QVQLVESGGGLVQPGGSLRLSCAASGISFSYYDMGWFRQAPGKQRELVAIVTSGGRTNYADSVKGRFTISRETAKSTMYLQMNSLKSEDTGVYYCNAHWIVTTDYWGQGTQVTVAS
5 | 0.058 | 2.05 | – | – | – | B2C2 heavy chain single-domain antibody (VHH, Tested as crude supernatant of IPTG-induced E. coli TG1 carrying the pComb3XSS clone) VHH: QLQLVESGGGLVQPGGSLRLSCAGSGIAFSRVTMAWSRQAPGKQRELVALITDGNRSAYVDSVKGRFTISRDNTKKTMSLQMNDLKPEDTAVYYCVATDWVPTRRDYWGQGTQVTVSS
6 | 0.061 | 1.99 | – | – | – | B3D2 heavy chain single-domain antibody (VHH, Tested as crude supernatant of IPTG-induced E. coli TG1 carrying the pComb3XSS clone) VHH: QLQLVESGGGLVQPGGSLTLSCLASGFTFSHYPMSWVRQAPGKGLEWVSVIGSDGAIKHYSDSVKGRFAISRDNAKNTLYLQMNSLKPEDTAVYYCAEGDSRYVRNRARGQGTQVTVSS
7 | – | – | 1.33 | 148 | – | B3F1 anti-TGFβ single domain heavy-chain antibody (variable region, linker peptide, human IgG1 heavy chain constant region) (Fc fusion, not shown: linker peptide (GGGGS)n, n=1, 2 or 3; human IgG1 heavy chain constant region, GenBank No. AK303185.1) heavy: QLQLVESGGGLVQPGGSLTLSCAASGFTFSLYPMSWVRQAPGKGLEWVSVIGSDGGTKHYSDSVKGRFAISRDNAKNTLYLQMNSLKPEDTAVYYCAEGDSRYVRGRTRGQGTQVTVSS
8 | 0.051 | – | – | – | – | B3C5 heavy chain single-domain antibody (VHH) VHH: QLQLVESGGGLVQPGGSLTLSCAASGFTFSHYPMSWVRQAPGKGLEWVSVIGSDGGTKIYSDSVKGRFAIARDNAKNTLYLQMNSLKPEDTAVYYCAEGDSRYVRGRTRGQGTQVTVSS
9 | 0.051 | – | – | – | – | B3F1 heavy chain single-domain antibody (VHH) VHH: QLQLVESGGGLVQPGGSLTLSCAASGFTFSLYPMSWVRQAPGKGLEWVSVIGSDGGTKHYSDSVKGRFAISRDNAKNTLYLQMNSLKPEDTAVYYCAEGDSRYVRGRTRGQGTQVTVSS
10 | – | – | 1.35 | 3.52 | – | B3C5 anti-TGFβ single domain heavy-chain antibody (variable region, linker peptide, human IgG1 heavy chain constant region) (Fc fusion, not shown: linker peptide (GGGGS)n, n=1, 2 or 3; human IgG1 heavy chain constant region, GenBank No. AK303185.1) heavy: QLQLVESGGGLVQPGGSLTLSCAASGFTFSHYPMSWVRQAPGKGLEWVSVIGSDGGTKIYSDSVKGRFAIARDNAKNTLYLQMNSLKPEDTAVYYCAEGDSRYVRGRTRGQGTQVTVSS
11 | 0.063 | 1.92 | – | – | – | B1B8 heavy chain single-domain antibody (VHH, Tested as crude supernatant of IPTG-induced E. coli TG1 carrying the pComb3XSS clone) VHH: EVQVVESGGGLVQPGGSLTLSCVASGFAFSFTPMRWVRQAPGKGLEWVSSISIRGDTTDYADSVKGRFTISRDNAKNTLYLQMNSLKPEDTAVYYCSRGSSISTSTERTQGTQVTVSS
12 | 0.061 | 1.92 | – | – | – | B2A9 heavy chain single-domain antibody (VHH, Tested as crude supernatant of IPTG-induced E. coli TG1 carrying the pComb3XSS clone) VHH: QLQLVESGGGLVQPGGSLRLSCTASGSTFEIYPIYAMAWFRQTPGKQRELVALTTDVKTNYADSVKGRFTISRDNAKNTVYLQMNMLQPEDTAVYVCNVGVVRGGLQNYWGQGTQVTVSS
13 | – | – | 1.46 | 1.25 | 5.43 | B2A9 anti-TGFβ single domain heavy-chain antibody (variable region, linker peptide, human IgG1 heavy chain constant region) (Fc fusion, not shown: linker peptide (GGGGS)n, n=1, 2 or 3; human IgG1 heavy chain constant region, GenBank No. AK303185.1) heavy: QLQLVESGGGLVQPGGSLRLSCTASGSTFEIYPIYAMAWFRQTPGKQRELVALTTDVKTNYADSVKGRFTISRDNAKNTVYLQMNMLQPEDTAVYVCNVGVVRGGLQNYWGQGTQVTVSS
14 | 0.07 | 1.03 | – | – | – | B1F8 heavy chain single-domain antibody (VHH, Tested as crude supernatant of IPTG-induced E. coli TG1 carrying the pComb3XSS clone; also called BIF8) VHH: QVQLVESGGGLVQPGGSLRLSCAASGSIFGVFYMGWFRQAPGKQREMVAISTDDRTSYVDSVKGRFTISRDNAKNTLALQMNSLKPEDTAVYFCNLNQLGTDYWGPGTQVTVSS
15 | 0.071 | 2.29 | – | – | – | B3F3 heavy chain single-domain antibody (VHH, Tested as crude supernatant of IPTG-induced E. coli TG1 carrying the pComb3XSS clone) VHH: QVQLVESGGGLVQPGESLRLSCTASGSIFGVFYMGWFRQAPGKQRDMVAISTDDRTSYADSVKGRFTISRDNAKNTLALQMNSLKPEDTAVYFCNLNQLGTDYWGPGTQVTVSS
16 | 0.067 | 1.65 | – | – | – | B3D6 heavy chain single-domain antibody (VHH, Tested as crude supernatant of IPTG-induced E. coli TG1 carrying the pComb3XSS clone) VHH: EVQLVESGGGLVQAGGSLRLSCAASGRSFSSLAVGWFRQPPGKKREIVAAVNWSGTSTYYPDSVKGRFSISRDNTKNTVYLQMNSLKPEDTAVYYCAADPDLRWLKLWGYEYWGQGTQVTVSS
17 | 0.057 | 1.29 | – | – | – | B2A1 heavy chain single-domain antibody (VHH, Tested as crude supernatant of IPTG-induced E. coli TG1 carrying the pComb3XSS clone) VHH: QVQLVESGGGLVQPGGSLRLSCAASGITFSHYDMAWFRQAPEKQRELVALITSGGKTAYADSVKGRFAISRDNAKNTVYLQMNSLKAGDTAVYYCNAHWVLTSQYWGQGTQVTVSS
18 | – | – | 1.25 | 1.07 | 3.82 | B2A1 anti-TGFβ single domain heavy-chain antibody (variable region, linker peptide, human IgG1 heavy chain constant region) (Fc fusion, not shown: linker peptide (GGGGS)n, n=1, 2 or 3; human IgG1 heavy chain constant region, GenBank No. AK303185.1) heavy: QVQLVESGGGLVQPGGSLRLSCAASGITFSHYDMAWFRQAPEKQRELVALITSGGKTAYADSVKGRFAISRDNAKNTVYLQMNSLKAGDTAVYYCNAHWVLTSQYWGQGTQVTVSS
19 | 0.057 | 2.06 | – | – | – | B2H1 heavy chain single-domain antibody (VHH, Tested as crude supernatant of IPTG-induced E. coli TG1 carrying the pComb3XSS clone) VHH: QLQLVESGGGLVQPGESLRLSCAASGIIFSASTMAWFRQAPGKQRELVALITDGDRTNYADSVKGRFTISRDNAENTVYLQMTELKFEDTAVYYCNAFWLKAYWGQGTQVTVSS
20 | 0.055 | 1.88 | – | – | – | B2C9 heavy chain single-domain antibody (VHH, Tested as crude supernatant of IPTG-induced E. coli TG1 carrying the pComb3XSS clone) VHH: EVQVVESGGGLVQPGGSLRLSCAASASVFSWSVMGWFRQAPGKQRELVAISSGDRETYADSVKGRFTISRDNAKNTVYLQMDTLKPEDTAVYFCNAYVPVGESRGDYWGQGTQVTVSS
21 | 0.064 | 1.69 | – | – | – | B2A2 heavy chain single-domain antibody (VHH, Tested as crude supernatant of IPTG-induced E. coli TG1 carrying the pComb3XSS clone) VHH: EVQVVESGGAAVQPGESLRLSCAASGSIFNTATMGWFRQAPGKQREMVAIITDGGRTNYADSVKGRFTISRDATKNTVYLQMNSLNPGDTAVYYCNALTIVPRSSIYWGQGTQVTVSS
22 | 0.067 | 1.95 | – | – | – | B1B7 heavy chain single-domain antibody (VHH, Tested as crude supernatant of IPTG-induced E. coli TG1 carrying the pComb3XSS clone) VHH: QVQLVESGGGLVQPGGSLTLSCTASGSMFSFYTMGWYRQATGKQRELVAGISLGGETTYAPSVKDRFTISRDNAKNTVYLQMNSLKPEDTALYNCNAYWGEDYWGQGTQVTVSS
